Laboratory results published in patent publication US6509383.

How the values were obtained:
[1] = biological target: purified calf thymus DNA polymerase δ (calf (bovine)) (UniProt P28339); assay: cell-based or functional assay
[2] = biological target: his-tagged Drosophila PCNA (UniProt P17917)
Chain of his-tagged Drosophila PCNA (P17917 whole entry): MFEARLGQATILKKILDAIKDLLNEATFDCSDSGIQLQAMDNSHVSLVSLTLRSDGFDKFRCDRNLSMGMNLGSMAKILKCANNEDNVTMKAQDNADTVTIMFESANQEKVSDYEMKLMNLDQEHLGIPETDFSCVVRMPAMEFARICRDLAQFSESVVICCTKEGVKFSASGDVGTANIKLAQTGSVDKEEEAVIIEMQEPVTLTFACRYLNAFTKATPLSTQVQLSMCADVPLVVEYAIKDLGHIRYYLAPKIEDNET

Chain of purified calf thymus DNA polymerase δ (calf (bovine)) (P28339 whole entry, stated change not applied): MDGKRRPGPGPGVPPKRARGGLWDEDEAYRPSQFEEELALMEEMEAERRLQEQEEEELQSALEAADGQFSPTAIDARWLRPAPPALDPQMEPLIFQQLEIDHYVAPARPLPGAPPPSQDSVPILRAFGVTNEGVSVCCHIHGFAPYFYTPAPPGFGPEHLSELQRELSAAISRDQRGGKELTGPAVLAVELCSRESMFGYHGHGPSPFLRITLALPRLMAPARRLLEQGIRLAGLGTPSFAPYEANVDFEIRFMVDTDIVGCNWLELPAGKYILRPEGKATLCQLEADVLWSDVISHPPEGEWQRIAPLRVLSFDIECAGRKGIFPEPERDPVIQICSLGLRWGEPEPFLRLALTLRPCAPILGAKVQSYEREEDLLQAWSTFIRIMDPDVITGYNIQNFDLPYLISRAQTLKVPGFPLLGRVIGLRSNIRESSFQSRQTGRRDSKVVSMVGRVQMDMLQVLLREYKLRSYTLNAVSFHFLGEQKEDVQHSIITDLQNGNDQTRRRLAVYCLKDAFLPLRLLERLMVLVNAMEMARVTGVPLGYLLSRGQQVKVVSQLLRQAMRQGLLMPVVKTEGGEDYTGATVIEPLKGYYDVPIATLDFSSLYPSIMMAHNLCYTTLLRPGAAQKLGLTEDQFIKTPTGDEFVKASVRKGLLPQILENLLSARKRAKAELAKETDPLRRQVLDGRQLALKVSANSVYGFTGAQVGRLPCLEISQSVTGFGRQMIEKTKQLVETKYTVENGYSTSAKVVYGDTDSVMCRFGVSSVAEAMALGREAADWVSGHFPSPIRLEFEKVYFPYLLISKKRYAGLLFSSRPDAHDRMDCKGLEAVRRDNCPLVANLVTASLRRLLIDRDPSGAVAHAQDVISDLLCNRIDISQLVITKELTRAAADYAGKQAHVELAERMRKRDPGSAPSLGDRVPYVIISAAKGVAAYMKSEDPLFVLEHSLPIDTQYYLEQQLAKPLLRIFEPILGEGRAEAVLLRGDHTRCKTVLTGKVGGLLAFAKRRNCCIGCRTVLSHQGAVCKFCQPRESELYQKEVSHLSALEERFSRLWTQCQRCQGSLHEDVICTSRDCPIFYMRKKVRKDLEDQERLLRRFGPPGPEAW

Substance | solution assay of pol δ: extended DNA synthesis beyond model abasic template lesions, compared with wild-type PCNA (phosphorimager) [1] | in situ DNA polymerase assay on Ni2+-IDA-paper ([alpha-32P]dGTP incorporation, PhosphorImager) [2]
NH2-terminally his-tagged E^85>K mutant human PCNA (from UniProt P12004 1-261) | 40% | –
purified calf thymus DNA polymerase δ | – | almost no reactivity was observed corresponding to the spot of Drosophila PCNA
